Test results: patent publication US20200087367A1 (ACCELERON PHARMA, published 2020)

T1: BMP5 (human, UniProt P22003 317-454, limits assumed)
T1 sequence (looked up): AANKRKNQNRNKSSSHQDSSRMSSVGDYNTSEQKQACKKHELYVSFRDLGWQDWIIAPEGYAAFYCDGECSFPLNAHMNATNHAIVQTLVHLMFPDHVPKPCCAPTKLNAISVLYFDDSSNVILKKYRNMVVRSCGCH

T2: hENG(26-437)-hFc (human, UniProt P17813 26-437)
T2 construct: HEK 293, purified; not shown: linker and human IgG1 Fc domain
T2 sequence: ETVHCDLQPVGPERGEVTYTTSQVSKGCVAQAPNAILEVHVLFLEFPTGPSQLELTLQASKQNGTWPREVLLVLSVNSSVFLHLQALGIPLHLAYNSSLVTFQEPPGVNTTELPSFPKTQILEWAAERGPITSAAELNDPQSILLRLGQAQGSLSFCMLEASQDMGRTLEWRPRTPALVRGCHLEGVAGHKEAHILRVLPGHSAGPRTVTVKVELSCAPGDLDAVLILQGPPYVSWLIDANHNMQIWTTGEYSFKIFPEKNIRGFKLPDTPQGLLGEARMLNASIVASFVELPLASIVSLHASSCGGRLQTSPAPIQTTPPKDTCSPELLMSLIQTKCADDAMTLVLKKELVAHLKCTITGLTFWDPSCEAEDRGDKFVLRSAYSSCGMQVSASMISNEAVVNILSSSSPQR

T3: hENG(26-586) (human, UniProt P17813 26-586)
T3 construct: Bought protein, a human variant with no Fc domain; also called R&D Systems, catalog #1097-EN
T3 sequence: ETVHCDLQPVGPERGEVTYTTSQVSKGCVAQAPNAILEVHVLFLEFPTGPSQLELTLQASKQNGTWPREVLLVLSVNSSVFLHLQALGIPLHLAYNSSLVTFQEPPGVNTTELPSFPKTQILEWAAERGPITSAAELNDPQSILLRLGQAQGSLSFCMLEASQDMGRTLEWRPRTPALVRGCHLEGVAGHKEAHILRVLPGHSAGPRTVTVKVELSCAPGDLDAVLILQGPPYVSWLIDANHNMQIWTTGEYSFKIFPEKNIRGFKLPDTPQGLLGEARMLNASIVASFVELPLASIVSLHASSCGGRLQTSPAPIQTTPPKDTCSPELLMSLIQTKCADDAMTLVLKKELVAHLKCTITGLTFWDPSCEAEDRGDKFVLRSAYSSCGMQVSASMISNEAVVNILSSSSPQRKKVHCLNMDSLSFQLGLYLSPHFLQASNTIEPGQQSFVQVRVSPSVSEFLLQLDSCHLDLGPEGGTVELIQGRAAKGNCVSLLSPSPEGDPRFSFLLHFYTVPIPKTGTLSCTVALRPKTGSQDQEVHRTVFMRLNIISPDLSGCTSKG

B1: ActRIIB-mFc (Fc fusion, not shown: a dimerising Fc or GST)
chain: GRGEAETRECIYYNANWELERTNQSGLERCEGEQDKRLHCYASWRNSSGTIELVKKGCWLDDFNCYDRQECVATEENPQVYFCCCEGNFCNERFTHLPEAGGPEVTYEPPPTAPT
B2: BMP2 (ligand, human, UniProt P12643 283-396, looked up)
chain: QAKHKQRKRLKSSCKRHPLYVDFSDVGWNDWIVAPPGYHAFYCHGECPFPLADHLNSTNHAIVQTLVNSVNSKIPKACCVPTELSAISMLYLDENEKVVLKNYQDMVVEGCGCR
notes: also called hBMP-2
B3: hBMP-2/7 (ligand, human)
chain 1: QAKHKQRKRLKSSCKRHPLYVDFSDVGWNDWIVAPPGYHAFYCHGECPFPLADHLNSTNHAIVQTLVNSVNSKIPKACCVPTELSAISMLYLDENEKVVLKNYQDMVVEGCGCR
chain 2: STGSKQRSQNRSKTPKNQEALRMANVAENSSSDQRQACKKHELYVSFRDLGWQDWIIAPEGYAAYYCEGECAFPLNSYMNATNHAIVQTLVHFINPETVPKPCCAPTQLNAISVLYFDDSSNVILKKYRNMVVRACGCH
B4: BMP7 (ligand, human, UniProt P18075 293-431, looked up)
chain: STGSKQRSQNRSKTPKNQEALRMANVAENSSSDQRQACKKHELYVSFRDLGWQDWIIAPEGYAAYYCEGECAFPLNSYMNATNHAIVQTLVHFINPETVPKPCCAPTQLNAISVLYFDDSSNVILKKYRNMVVRACGCH
notes: also called hBMP-7
B5: TGF-β2 (ligand, human, UniProt P61812 303-414, looked up)
chain: ALDAAYCFRNVQDNCCLRPLYIDFKRDLGWKWIHEPKGYNANFCAGACPYLWSSDTQHSRVLSLYNTINPEASASPCCVSQDLEPLTILYYIGKTPKIEQLSNMIVKSCKCS
notes: also called hTGF-β2
B6: TGF-β3 (ligand, human, UniProt P10600 301-412, looked up)
chain: ALDTNYCFRNLEENCCVRPLYIDFRQDLGWKWVHEPKGYYANFCSGPCPYLRSADTTHSTVLGLYNTLNPEASASPCCVPQDLEPLTILYYVGRTPKVEQLSNMVVKSCKCS
notes: also called hTGF-β3
B7: activin A (ligand, human, UniProt P08476 311-426, looked up)
chain: GLECDGKVNICCKKQFFVSFKDIGWNDWIIAPSGYHANYCEGECPSHIAGTSGSSLSFHSTVINHYRMRGHSPFANLKSCCVPTKLRPMSMLYYDDGQNIIKKDIQNMIVEECGCS
notes: also called hActivin A

What was measured:
[1] = target: T1, BMP5; assay: SPR (Biacore), ligand amine-coupled to CM5 chip, Fc fusion injected
[2] = target: T2, hENG(26-437)-hFc; assay: SPR ligand screen; '-' = Binding undetectable
[3] = target: T3, hENG(26-586); assay: SPR (Biacore), immobilized hENG(26-586), soluble ligand; '-' = binding undetectable
Excerpt: Considered a co-receptor, ENG is widely thought to function by facilitating the binding of TGF-β1 and -3 to multi-protein complexes of type I and type II receptors. To investigate the possibility of direct ligand binding by isolated ENG, surface plasmon resonance (SPR) methodology (Biacore™ instrument) was used to screen for binding of captured proteins comprising the full-length extracellular domain of ENG to a variety of soluble human TGF-β family ligands.

Binder | binding result [1] | binding result [2] | binding result [3]
B1 | binds |  | 
B2 |  | no binding (tested: 100 nM) | no binding (tested: 25 nM)
B3 |  | no binding (tested: 100 nM) | no binding (tested: 25 nM)
B4 |  | no binding (tested: 100 nM) | no binding (tested: 25 nM)
B5 |  | no binding (tested: 100 nM) | no binding (tested: 25 nM)
B6 |  | no binding (tested: 50 nM) | no binding (tested: 25 nM)
B7 |  | no binding (tested: 100 nM) | no binding (tested: 25 nM)
